The term Kd denotes a measure of binding affinity in units of concentration.

Read-outs that look alike come from different tables or passages of the source.

The target of data set [1] is T1, MgR D284A (RNase R, catalytically inactive) (Mycoplasma genitalium, UniProt P47350 1-725, D284A).
T1 sequence: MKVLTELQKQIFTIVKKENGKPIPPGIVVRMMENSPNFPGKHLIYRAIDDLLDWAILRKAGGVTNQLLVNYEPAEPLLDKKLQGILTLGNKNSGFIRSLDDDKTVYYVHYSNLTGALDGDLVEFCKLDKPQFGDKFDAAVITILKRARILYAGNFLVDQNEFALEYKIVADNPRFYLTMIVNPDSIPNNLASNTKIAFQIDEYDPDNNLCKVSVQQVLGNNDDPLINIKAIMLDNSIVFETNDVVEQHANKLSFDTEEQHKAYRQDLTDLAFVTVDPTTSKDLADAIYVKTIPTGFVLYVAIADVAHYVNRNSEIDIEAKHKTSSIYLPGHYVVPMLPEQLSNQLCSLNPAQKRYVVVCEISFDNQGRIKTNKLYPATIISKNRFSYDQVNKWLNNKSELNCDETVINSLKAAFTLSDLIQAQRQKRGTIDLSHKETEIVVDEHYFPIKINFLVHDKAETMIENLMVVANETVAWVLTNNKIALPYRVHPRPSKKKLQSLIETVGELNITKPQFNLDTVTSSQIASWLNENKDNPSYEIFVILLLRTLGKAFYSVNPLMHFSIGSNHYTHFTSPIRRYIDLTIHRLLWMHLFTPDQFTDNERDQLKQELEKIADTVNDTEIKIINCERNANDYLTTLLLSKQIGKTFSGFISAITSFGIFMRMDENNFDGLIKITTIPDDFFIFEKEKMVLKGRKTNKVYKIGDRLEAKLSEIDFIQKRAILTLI
As to the kind of experiment: crystal structure.

Data set [2] has as its target T1, MgR D284A (RNase R, catalytically …). Put plainly: fluorescence polarization.
The target is the same in data set [3]. Put plainly: crystal structure. The source holds these as a separate data set.

For AAAA (ssRNA, 2'-O-methyl at A3 ('me' read as suffix)) [4-nt 2'-O-methylated oligo rA (AAAmeA)], the binding result in data set [1] is listed as “binds”. Regarding CAAACAAAACCGUGUAAAAACAAA (ssRNA, 2'-O-methyl at G12, G14, A23 ('me' read as suffix, as in the rA15 30-mer)) [24-nt ssRNA, 2'-O-methylated], the Kd in data set [2] amounted to 6.63 ± 0.69 nM. The molecule CAAACAAAACCGUGUAAAAACAAA (ssRNA) [24-nt ssRNA, unmethylated] had a Kd in data set [2] of 6.62 ± 0.7 nM.

B1: 6-bp dsRNA with 7-nt 3' overhang (dsRNA)
RNA 1: CCGUGUAAAAAAA
RNA 2: ACACGG
Take B1: in data set [3], the binding result was “binds”.

Values taken from publication PMC8096214.
